Measured values reported in PMC2928749, “Understanding the Role of the Josephin Domain in the PolyUb Binding and Cleavage Properties of Ataxin-3” (PLoS ONE, 2010).

Columns and labels:
[1] = molecular target: T1, K48-linked diUb (made from UbD77 and UbK48C) (UniProt P0CG47 1-76; P0CG47 1-76, UbD77 | UbK48C, K48-linked to the other Ub (isopeptide bond between K48 and G76) | K48-linked to the other Ub (isopeptide bond between K48 and G76)); test: NMR titration; 15N-labelled Josephin (C14A) 0.05 mM in 20 mM sodium phosphate pH 6.5, 2 mM DTT, 298 K, 600 MHz; stepwise additions of unlabelled K48- or K63-linked diUb up to 10 and 2.5 fold molar excess; chemical shift perturbation; conditions: both partners purified
T1 construct: ubiquitin, mutant UbD77; ubiquitin, mutant UbK48C; also called K48-linked diUb chains; K48-diUb; copies: 1 + 1

[2] = molecular target: T2, K63-linked diUb (made from UbD77 and UbK63R) (UniProt P0CG47 1-76; P0CG47 1-76, UbD77 | UbK63R, K63-linked to the other Ub (isopeptide bond between K63 and G76) | K63-linked to the other Ub (isopeptide bond between K63 and G76)); test: as above; conditions: both partners purified
T2 construct: ubiquitin, mutant UbD77; ubiquitin, mutant UbK63R; By the usual protocol G76 of UbK63R is joined to K63 of UbD77; also called K63-linked diUb chains; K63-diUb; source: recombinant Ub mutants joined with E1, Ubc13 and Uev1a by the same protocol, purified on a monoS cation exchange column; copies: 1 + 1

binding result [1]: binds
binding result [2]: binds
B1: Josephin domain of ataxin-3 (amino acids 1-182), C14A mutant, 15N labelled (domain or fragment, UniProt P54252 1-182, looked up)
chain: MESIFHEKQEGSLAAQHCLNNLLQGEYFSPVELSSIAHQLDEEERMRMAEGGVTSEDYRTFLQQPSGNMDDSGFFSIQVISNALKVWGLELILFNSPEYQRLRIDPINERSFICNYKEHWFTVRKLGKQWFNLNSLLTGPELISDTYLALFLAQLQQEGYSIFVVKGDLPDCEADQLLQMIR
modifications: 15N labelled
notes: ataxin-3, N-terminal catalytic Josephin domain, amino acids 1-182; catalytic cysteine mutated so that no cleavage could occur; The methods speak of titrations of 15N Josephin or of the C14A mutant; the results say that C14A was used; also called isolated Josephin domain; C14A Josephin mutant; source: E. coli BL21(DE3), purified as previously described [35]; grown in synthetic medium with 15NH4Cl
